Test results published in the Human Domainome abundance scans (Beltran et al. 2025).
± gives the uncertainty stated by the source.

B1: Ankyrin repeat and SOCS box protein 14, residues 532 to 572; numbered along this chain, A6NK59 (parent)
chain: RSLKHLCRLKIRKCMGRLHLRCPVFMSFLPLPNRLKAYVLY

Variants of: B1
Assay: abundance fitness (aPCA) (normalised: wild type 0, dead -1); higher = more abundant; growth selection in yeast, the domain comes from the species named
Conditions: Homo sapiens

Going from RSLKHLCRLKIRKCMGRLHLRCPVFMSFLPLPNRLKAYVGY to RSLKHLCRLKIRKCMGRLHLRCPVFMSFLPLPNRLKAYVLS, the abundance fitness rises from -0.312 ± 0.051 to 0.356 ± 0.063.

First: RSLKHLCRLKIRKCMGRLHLRCPVFMSFLPLENRLKAYVLY
Second: RSLKHLCRLKIRKCMGRLHLRCPVFMSFLPLPNRLKALVLY
The abundance fitness of the first is lower: -1.07 ± 0.13 for the first, -0.346 ± 0.084 for the second.

RSLKHLCRLKIRKCMGRLHLRCPVFMSFLPLPNRLKAIVLY and RSLKHLCRLKIRKCMGRLHLRCPVFQSFLPLPNRLKAYVLY are within error of each other in abundance fitness: -0.293 ± 0.29 for the first, -0.154 ± 0.064 for the second.

First: RSLKHLCRLKIRKCMGRLHLRCPVFDSFLPLPNRLKAYVLY
Second: RSLKHLRRLKIRKCMGRLHLRCPVFMSFLPLPNRLKAYVLY
The abundance fitness of the first is higher: -0.004 ± 0.085 for the first, -0.871 ± 0.074 for the second.

First: RSLKHLCRLKIRKCMGRLHLRCPVFMSFLPLPNHLKAYVLY
Second: RSLKHLCRLKIRKCMGRLHLRCPVFMSFLPLPGRLKAYVLY
The abundance fitness of the first is lower: -0.455 ± 0.32 for the first, 0.216 ± 0.049 for the second.

Compared with RSLKHLCRLKIRKWMGRLHLRCPVFMSFLPLPNRLKAYVLY, RSLKHLCRLKIRKPMGRLHLRCPVFMSFLPLPNRLKAYVLY is lower in abundance fitness: 0.462 ± 0.048 for the first, -0.3 ± 0.07 for the second.

First: RSLKHLCRLKIRKEMGRLHLRCPVFMSFLPLPNRLKAYVLY
Second: RSLKHLCRLKIRKCMGRLHLRCPKFMSFLPLPNRLKAYVLY
The abundance fitness of the first is lower: -0.024 ± 0.076 for the first, 0.449 ± 0.11 for the second.

First: RSLKHLCRLKARKCMGRLHLRCPVFMSFLPLPNRLKAYVLY
Second: RSLKHLCRLKERKCMGRLHLRCPVFMSFLPLPNRLKAYVLY
The abundance fitness of the first is higher: -0.613 ± 0.071 for the first, -0.953 ± 0.17 for the second.

Compared with RSLKHLCRLKKRKCMGRLHLRCPVFMSFLPLPNRLKAYVLY, RSMKHLCRLKIRKCMGRLHLRCPVFMSFLPLPNRLKAYVLY is higher in abundance fitness: -0.858 ± 0.2 for the first, -0.163 ± 0.071 for the second.

First: RSRKHLCRLKIRKCMGRLHLRCPVFMSFLPLPNRLKAYVLY
Second: RSLKHLCRLKIRKCMGRLHLRCPVFMSFDPLPNRLKAYVLY
The abundance fitness of the first is lower: -0.759 ± 0.078 for the first, -0.435 ± 0.087 for the second.

Compared with RSLKHLCRLKIRKCMGRLHLRCPVFMSFYPLPNRLKAYVLY, RSLKHLCRLKIRKCMNRLHLRCPVFMSFLPLPNRLKAYVLY is higher in abundance fitness: -0.53 ± 0.48 for the first, 0.231 ± 0.15 for the second.

Compared with RSLKHLCRLKIRKCMGRLHLRCPVFMSFLILPNRLKAYVLY, RSLKHLCRLKIRKCMGGLHLRCPVFMSFLPLPNRLKAYVLY is higher in abundance fitness: -0.217 ± 0.065 for the first, 0.293 ± 0.048 for the second.

Going from RSLKHLCRLKIRKCMGKLHLRCPVFMSFLPLPNRLKAYVLY to RSLKHLCRLKIRKCMGRLHLRDPVFMSFLPLPNRLKAYVLY, the abundance fitness falls from 0.046 ± 0.068 to -1.02 ± 0.39.

First: RSLKHLCRLKIRKCMGRLHLRNPVFMSFLPLPNRLKAYVLY
Second: RSLKHECRLKIRKCMGRLHLRCPVFMSFLPLPNRLKAYVLY
The abundance fitness of the first is lower: -0.719 ± 0.29 for the first, 0.166 ± 0.045 for the second.

Going from RSLKHTCRLKIRKCMGRLHLRCPVFMSFLPLPNRLKAYVLY to RSLKHLCRLKIRKCGGRLHLRCPVFMSFLPLPNRLKAYVLY, the abundance fitness falls from -0.041 ± 0.13 to -0.367 ± 0.053.

Going from RSLKHLCRLKIRKCMGRLHLRCPVFMSFLPLPNRLKAYWLY to RSLKHLCRLKIRKCMGRLHLRCPVFMSFLPLPNRLKAYDLY, the abundance fitness falls from -0.43 ± 0.065 to -0.95 ± 0.22.

RSLKHLCRLKIRKCMGRLHLRCPVFMSFLPLPNRLKAYTLY and RSLKHLCRLKIRKCMGRLHLRCPVFMSFLPLPNRLKHYVLY are within error of each other in abundance fitness: -0.186 ± 0.19 for the first, -0.118 ± 0.072 for the second.

Going from RSLKHLCRLKIRKCMGRLHLRCPVFMSFLPLPNRLKPYVLY to RSLKHLCRLKIRKCMGRLHLRCPVFMSFLPLPNRLKWYVLY, the abundance fitness rises from -0.995 ± 0.11 to -0.502 ± 0.057.

Going from RSLKVLCRLKIRKCMGRLHLRCPVFMSFLPLPNRLKAYVLY to RSLKHLCRLKIRKCMGRLHLRCPVFMRFLPLPNRLKAYVLY, the abundance fitness rises from -0.94 ± 0.14 to 0.042 ± 0.051.

Compared with RSLKHLCRLKIRKCMGRLHLRCPVFMAFLPLPNRLKAYVLY, RSLKHLCRDKIRKCMGRLHLRCPVFMSFLPLPNRLKAYVLY is higher in abundance fitness: -0.059 ± 0.058 for the first, 0.13 ± 0.12 for the second.

Compared with RSLKHLCRLKIRKCMGRLHLRCHVFMSFLPLPNRLKAYVLY, RSLKHLCRLKIRKCMGRLHLRCWVFMSFLPLPNRLKAYVLY is higher in abundance fitness: -0.306 ± 0.15 for the first, 0.321 ± 0.058 for the second.

First: RSLKHLCRLKIRKCMGRLHLRCVVFMSFLPLPNRLKAYVLY
Second: RSLKHLCRLKIRKCMGRLHLRCPVFMSVLPLPNRLKAYVLY
The abundance fitness of the first is higher: 0.384 ± 0.068 for the first, -0.156 ± 0.047 for the second.

Compared with RSLKHLCRLKIRKCMGRLHLRCPVFMSCLPLPNRLKAYVLY, MSLKHLCRLKIRKCMGRLHLRCPVFMSFLPLPNRLKAYVLY is higher in abundance fitness: -0.198 ± 0.06 for the first, 0.386 ± 0.36 for the second.

RSLKHLCRLKIRKCMGRIHLRCPVFMSFLPLPNRLKAYVLY and RLLKHLCRLKIRKCMGRLHLRCPVFMSFLPLPNRLKAYVLY are within error of each other in abundance fitness: 0.248 ± 0.16 for the first, 0.136 ± 0.051 for the second.

Compared with RALKHLCRLKIRKCMGRLHLRCPVFMSFLPLPNRLKAYVLY, RSLKHLCWLKIRKCMGRLHLRCPVFMSFLPLPNRLKAYVLY is higher in abundance fitness: -0.37 ± 0.078 for the first, 0.4 ± 0.053 for the second.

RSLKHLCRLKIRHCMGRLHLRCPVFMSFLPLPNRLKAYVLY and RSLKHLCRLKIRTCMGRLHLRCPVFMSFLPLPNRLKAYVLY are within error of each other in abundance fitness: -0.081 ± 0.43 for the first, -0.161 ± 0.062 for the second.

Compared with RSLKHLCRLKIRVCMGRLHLRCPVFMSFLPLPNRLKAYVLY, RSLKHLCRLKIRPCMGRLHLRCPVFMSFLPLPNRLKAYVLY is lower in abundance fitness: -0.236 ± 0.05 for the first, -0.434 ± 0.099 for the second.

First: RSLKHLCRLKIRKCMGRLQLRCPVFMSFLPLPNRLKAYVLY
Second: RSLKHLCRLKIRKCMGRLYLRCPVFMSFLPLPNRLKAYVLY
The abundance fitness of the first is higher: -0.004 ± 0.087 for the first, -0.336 ± 0.15 for the second.

RSLKHLCRLKIRKCMGRLHLRCPVMMSFLPLPNRLKAYVLY and RSLKHLCRLKIRKCMGRLHVRCPVFMSFLPLPNRLKAYVLY are within error of each other in abundance fitness: -0.042 ± 0.073 for the first, -0.233 ± 0.12 for the second.

First: RSLKHLCRLKIRKCMGRLHRRCPVFMSFLPLPNRLKAYVLY
Second: RSLKHLCRLKIRKCMGRLHLSCPVFMSFLPLPNRLKAYVLY
The abundance fitness of the first is lower: -0.348 ± 0.069 for the first, -0.147 ± 0.066 for the second.

Compared with RSLKHLCRLKIRKCMGRLHLQCPVFMSFLPLPNRLKAYVLY, RSLKHLCRLKIRKCMGRLHLLCPVFMSFLPLPNRLKAYVLY is higher in abundance fitness: -0.623 ± 0.21 for the first, 0.196 ± 0.049 for the second.
